In patent US20190300590A1 (PROTAGONIST THERAPEUTICS, published 2019):
*1 amine or outer side, *2 acyl side, *3 side chain or, on linkers, in order; H or OH if unused. Bridges are numbered along the chain shown (N, C = ends). [ ]: non-standard residue; d: D form. The star is where a group is joined. Phe(4-OMe) = 4-methoxy-L-phenylalanine (O-methyl-L-tyrosine), COc1ccc(C[C@H](N[*:1])C(=O)[*:2])cc1; Abu(4-yl) = O=C([C@H](CC[*:3])N[*:1])[*:2]; 2Nal = N[C@@H](Cc1ccc2ccccc2c1)C(=O)O; Palmitoyl = CCCCCCCCCCCCCCCC(=O)*; NMeK = CN[C@@H](CCCCN)C(=O)O; αMeK = C[C@](N)(CCCCN)C(=O)O; Abu = CC[C@H](N)C(=O)O; AEA = NCCOCC(=O)O

Key:
IL23R_huFC [1] = target: T1, IL23R_huFC (human, UniProt Q5VWK5 24-353); experiment: IL23-IL23R competitive binding ELISA
T1 sequence (looked up): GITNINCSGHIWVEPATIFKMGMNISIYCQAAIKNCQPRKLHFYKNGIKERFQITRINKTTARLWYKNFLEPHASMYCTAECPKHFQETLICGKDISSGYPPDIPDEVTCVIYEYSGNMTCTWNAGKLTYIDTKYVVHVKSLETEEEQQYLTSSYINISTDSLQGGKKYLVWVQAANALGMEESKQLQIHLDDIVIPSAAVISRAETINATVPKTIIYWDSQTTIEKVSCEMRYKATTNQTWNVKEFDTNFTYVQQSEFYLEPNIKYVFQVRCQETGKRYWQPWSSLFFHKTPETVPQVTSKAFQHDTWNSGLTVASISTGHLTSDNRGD

IL23R_huFC [2] = target: T2, IL23R_huFC (human, UniProt Q5VWK5 24-353); experiment: human ELISA vs IL-23
T2 sequence (looked up): T1 sequence (looked up)

Rat IL-23R_huFC [3] = target: Rat IL-23R_huFC (rat); experiment: rat ELISA vs IL-23
[4] = target: T3, IL-23R on human cells (IL-23R-expressing DB cells; human NK cells) (human, UniProt Q5VWK5 24-629); experiment: cell-based or functional assay
T3 sequence (looked up): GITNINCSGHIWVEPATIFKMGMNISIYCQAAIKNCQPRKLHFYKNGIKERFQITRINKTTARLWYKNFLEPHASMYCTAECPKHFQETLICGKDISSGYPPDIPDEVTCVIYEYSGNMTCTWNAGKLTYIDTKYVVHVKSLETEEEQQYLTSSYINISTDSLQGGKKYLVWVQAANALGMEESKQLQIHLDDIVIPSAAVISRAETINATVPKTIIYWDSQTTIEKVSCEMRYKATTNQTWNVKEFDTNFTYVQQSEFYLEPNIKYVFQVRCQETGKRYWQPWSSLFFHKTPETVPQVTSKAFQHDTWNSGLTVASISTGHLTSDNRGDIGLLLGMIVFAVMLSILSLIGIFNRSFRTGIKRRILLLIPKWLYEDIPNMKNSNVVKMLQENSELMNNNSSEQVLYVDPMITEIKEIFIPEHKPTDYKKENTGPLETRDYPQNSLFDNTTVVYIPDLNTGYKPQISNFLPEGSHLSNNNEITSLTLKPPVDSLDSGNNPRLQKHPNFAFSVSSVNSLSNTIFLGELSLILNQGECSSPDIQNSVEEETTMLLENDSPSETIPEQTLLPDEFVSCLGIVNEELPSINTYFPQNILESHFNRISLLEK

IL23R_huFC [5] = target: T2, IL23R_huFC; experiment: human ELISA vs IL-23; remark: listed apart in the source
IL-23R on DB cells = target: T4, IL-23R on DB cells (human, UniProt Q5VWK5 24-629); experiment: cell-based or functional assay
T4 sequence (looked up): T3 sequence (looked up)

Rat IL-23R_huFC [6] = target: T5, Rat IL-23R_huFC (rat, UniProt F1LX96 39-369); experiment: rat IL-23R competitive binding ELISA
T5 sequence: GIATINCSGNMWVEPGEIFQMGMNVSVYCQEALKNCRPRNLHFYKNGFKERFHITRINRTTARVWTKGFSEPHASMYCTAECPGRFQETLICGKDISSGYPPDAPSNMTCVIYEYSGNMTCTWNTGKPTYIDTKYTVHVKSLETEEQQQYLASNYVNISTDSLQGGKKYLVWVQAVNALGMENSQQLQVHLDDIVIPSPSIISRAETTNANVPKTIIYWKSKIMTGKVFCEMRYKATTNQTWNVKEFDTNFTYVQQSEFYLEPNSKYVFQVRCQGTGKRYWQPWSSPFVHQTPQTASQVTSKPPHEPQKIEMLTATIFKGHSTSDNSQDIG

[7] = target: T3, IL-23R on human cells …; experiment: cell-based or functional assay; remark: listed apart in the source
IL23R_huFC [8] = target: T6, IL23R_huFC (human, UniProt Q5VWK5 24-353); experiment: IL23-IL23R competitive ELISA
T6 sequence (looked up): T1 sequence (looked up)

## CQTWQCYWXLNG (Ac; Z as printed (not explained); NH2) [Ac-CQTWQCYWZ-LNG-NH2]
IL23R_huFC [1]
  IC50: 800 nM

## Ac-[Abu]QTWQC[Phe(4-OMe)][2Nal][dN]K(Ac)NG-NH2 (thioether 1-6) [Ac-Cyclo-[[Abu]-QTWQC]-[Phe(4-OMe)]-[2-Nal]-[(D)Asn]-[Lys(Ac)]-NG-NH2]
IL23R_huFC [2]
  IC50: 25 to 100 nM
Rat IL-23R_huFC [3]
  IC50: 100 to 1000 nM

## Ac-[Abu]QTWQC[Phe(4-OMe)][2Nal][αMeK]ENG-NH2 (thioether 1-6) [Ac-Cyclo-[[Abu]-QTWQC]-[Phe(4-OMe)]-[2-Nal]-[α-MeLys]-ENG-NH2]
[4]
  pStat3 HTRF IC50: < 10 nM
IL23R_huFC [2]
  IC50: 25 to 100 nM
Rat IL-23R_huFC [3]
  IC50: 100 to 1000 nM

## Ac-[Abu]QTWQCYWRENG[AEA][dK]-NH2 (thioether 1-6) [Ac-Cyclo-[[Abu]-QTWQC]-YWRENG-[AEA]-[(D)Lys]-NH2]
Rat IL-23R_huFC [3]
  IC50: 100 to 1000 nM
IL23R_huFC [5]
  IC50: 100 to 1000 nM

B1: Ac-CSTWQCYWLKHGGE-NH2 (peptide)
peptide: Ac-CSTWQCYWLKHGGE-NH2
modifications: disulfide 1-6
SMILES: CC(=O)N[C@H]1CSSC[C@@H](C(=O)N[C@@H](Cc2ccc(O)cc2)C(=O)N[C@@H](Cc2c[nH]c3ccccc23)C(=O)N[C@@H](CC(C)C)C(=O)N[C@@H](CCCCN)C(=O)N[C@@H](Cc2c[nH]cn2)C(=O)NCC(=O)NCC(=O)N[C@@H](CCC(=O)O)C(N)=O)NC(=O)[C@H](CCC(N)=O)NC(=O)[C@H](Cc2c[nH]c3ccccc23)NC(=O)[C@H]([C@@H](C)O)NC(=O)[C@H](CO)NC1=O
IL-23R on DB cells
  pStat3 HTRF IC50: 2 nM
Rat IL-23R_huFC [6]
  IC50: 24 nM

## CQTWQCYWLENG (not fully specified; Ac; α-MeLeu at 9; NH2) [Ac-CQTWQCYW-[α-MeLeu]-ENG-NH2]
IL-23R on DB cells
  pStat3 HTRF IC50: 5 nM
Rat IL-23R_huFC [6]
  IC50: 27 nM

## Ac-CQTWQCYWK(Palmitoyl)ENG-NH2 (cysteine pairing not given here) [Ac-CQTWQCYW-[K(Palm)]-ENG-NH2]
IL23R_huFC [1]
  IC50: 4880 nM

## XQTWQXFXLKNN (as bracketed in name; Pen-Pen disulfide) [Ac-[Pen]-QTWQ-[Pen]-[Phe[4-(2-aminoethoxy)]-[2-Nal]-[α-MeLeu]-[Lys(Ac)]-NN-NH2]
[7]
  NK cell assay IC50 (IFNγ): < 10 nM

## XNTWQXFXXKNN (as bracketed in name; Pen-Pen disulfide) [Ac-[Pen]-NTWQ-[Pen]-[Phe]4-(2-aminoethoxy)]-[2-Nal]-[Aib]-[Lys(Ac)]-NN-NH2]
[7]
  NK cell assay IC50 (IFNγ): < 10 nM

## CQTWQCYWXENG (not fully specified; Ac; Ogl; NH2) [Ac-CQTWQCYW-[Ogl]-ENG-NH2]
IL-23R on DB cells
  pStat3 HTRF IC50: 76 nM

B2: Ac-Cyclo-[[Abu]RTWQC]-YWRKFG-[AEA]-[(D)Lys]-NH2 (peptide)
peptide: Ac-[Abu(4-yl)]RTWQCYWRKFG[AEA][dK]-NH2
modifications: thioether 1-6
SMILES: CC(=O)N[C@H]1CCSC[C@@H](C(=O)N[C@@H](Cc2ccc(O)cc2)C(=O)N[C@@H](Cc2c[nH]c3ccccc23)C(=O)N[C@@H](CCCNC(=N)N)C(=O)N[C@@H](CCCCN)C(=O)N[C@@H](Cc2ccccc2)C(=O)NCC(=O)NCCOCC(=O)N[C@H](CCCCN)C(N)=O)NC(=O)[C@H](CCC(N)=O)NC(=O)[C@H](Cc2c[nH]c3ccccc23)NC(=O)[C@H]([C@@H](C)O)NC(=O)[C@H](CCCNC(=N)N)NC1=O
IL23R_huFC [2]
  IC50: 25 to 100 nM
Rat IL-23R_huFC [3]
  IC50: 100 to 1000 nM

## Ac-ARTWQ[MeCys]YWRKFG[AEA][dK]-NH2 (not fully specified; printed as Ac-ARTWQ-[MeCys]-YWRKFG-[AEA]-[(D)Lys]-NH2) [Ac-ARTWQ-[MeCys]-YWRKFG-[AEA]-[(D)Lys]-NH2]
IL23R_huFC [8]
  IC50: 7570 nM

## Ac-C[NMeK]TWQCYWRVFG[AEA][dK]-NH2 (cysteine pairing not given here) [Ac-C-[N-MeLys]-TWQCYWRVFG-[AEA]-[(D)Lys]-NH2]
IL23R_huFC [8]
  IC50: 80 nM

## Ac-CKTWQCYWRVFG[AEA][dK]-NH2 (cysteine pairing not given here) [Ac-CKTWQCYWRVFG-[AEA]-[(D)Lys]-NH2]
IL23R_huFC [8]
  IC50: 40 nM
